Data published in paper PMC6783550, “Molecular mechanism of azoxy bond formation for azoxymycins biosynthesis” (Nature Communications, 2019).

Key:
Nc1ccc(/C=C/C(=O)O)cc1 = test: purified protein; conditions: 30 °C, general assay: 1 mM NADH, 10 μM PMS, O2, 20 mM HEPES pH 7
[1] = biological target: AzoC (Streptomyces chattanoogensis); test: native gel or EMSA + SEC; Native-PAGE and size-exclusion chromatography of purified recombinant AzoC; SEC on Sephacryl S-300, AKTA Purifier, 4 °C, 20 mM Tris pH 8.0, 250 mM NaCl, 1 mL/min, markers IgG (150 kDa) and BSA (67 kDa); self-association, homodimer

stoichiometry N [1] | Substance | Km (Nc1ccc(/C=C/C(=O)O)cc1) [µM] | kcat (Nc1ccc(/C=C/C(=O)O)cc1) [s⁻¹]
 | AzoC (Streptomyces chattanoogensis) | 4.24 ± 0.9 | 0.7005 ± 0.0698
2 | AzoC (enzyme) |  | 
